US20100209426A1, “INHIBITORS OF PROGASTRIN-INDUCED REPRESSION OF ICAT FOR TREATING AND/OR PREVENTING COLORECTAL CANCER, ADENOMATOUS POLYPOSIS OR METASTASIS DISPLAYING PROGASTRIN-SECRETING CELLS AND CELLS IN WHICH THE BETA-CATENIN/TCF-MEDIATED TRANSCRIPTIONAL PATHWAY IS CONSTITUTIVELY ACTIVE” (INSERM (INSTITUT NATIONAL DE LA SANTE ET DE LA REC HERCHE …, priority 2006, published 2010)
Where no end group is shown, it is not given here.

What was measured:
[1] = system: β-catenin/Tcf-4 transcriptional activity; test: TOP/FOP Luciferase reporter gene assay in SW480 cells; type: cell-based
Protocol: The protocol used to measure the transcriptional activity of TCF/LEF-1 was described before (Morin et al., 1997). Briefly, cells were transfected with 500 ng of TCF/LEF-1 reporter (pTOP-FLASH), or control vector (pFOP-FLASH) and with 25 ng pCMV-Renilla. Luciferase activity was quantified using the Dual luciferase reporter assay system (Promega), and was normalized relative to the activity of Renilla.

ICAT = ICAT expression in SW480 cells (RT-QPCR, immunoblotting); type: cell-based, human
Protocol: (§1) 2.5 μg of total RNA was pretreated with DNAse RQ1 (Promega) for 30 min at 37° C. and used for reverse transcription with M-MLV reverse transcriptase (In vitrogen). Quantitative PCR was carried out using the LightCycler FastStart DNA MasterPlus SYBR Green I kit (Roche Diagnostics, Meylan, France), under the following conditions: Actin: denaturation during 10 min at 95° C., amplification for 50 cycles: 10 sec at 95° C., 6 sec at 58° C., 11 sec at 72° C. Melting curve: 0 sec at 95° C., 30 sec at 68° C., 0 sec at 95° C. and cooling was for 2 min at 40° C.: c-myc, ILK, chromogranin A and GAPDH amplification: denaturation during 10 min at 95° C., amplification for 50 cycles: 10 sec at 70° C., 6 sec at 58° C., 13 sec at 72° C. The melting curve was 0 sec at 95° C., 30 sec at 80° C., 0 sec at 95° C. and cooling was for 2 min at 40° C. Progastrin, Muc-2, ALP and ICAT amplification: denaturation during 10 min at 95° C., amplification during 50 cycles with: 10 sec at 70° C., 6 sec at 95° C., 11 sec at 72° C. The melting curve was 0 sec at 95° C., 30 sec at 80° C., 0 sec at 70° C. and cooling was for 2 min at 40° C. […]
(§2) Protein lysates, immunoprecipitations and immunoblotting were performed as described before (Hollande et al., 2003) Proteins were visualized using ECL Plus (Amersham Biosciences) and the bands were quantified by densitometry using ImageJ 1.32J (NIH, Bethesda, Md.).

SW480 cells [2] = test: Differentiation and apoptosis of SW480 cells after transient siRNA transfection; type: cell-based, human
Protocol: The day before transfection, SW480 cells were seeded in 24-well plates (5×10^4 cells/well). Cells were transfected with 100 pmol of rhodamine tagged GAS-specific or β-galactosidase-specific […], and 5 μl/well of Exgen 500 (Euromedex), according to the manufacturer's instructions. 48 hr or 72 hr after transfection, cells were lysed (for immunoblotting and PCR) or fixed in 1% paraformaldehyde for immunostaining.
2.5 μg of total RNA was pretreated with DNAse RQ1 (Promega) for 30 min at 37° C. and used for reverse transcription with M-MLV reverse transcriptase (In vitrogen). Quantitative PCR was carried out using the LightCycler FastStart DNA MasterPlus SYBR Green I kit (Roche Diagnostics, Meylan, France), under the following conditions: Actin: denaturation during 10 min at 95° C., amplification for 50 cycles: 10 sec at 95° C., 6 sec at 58° C., 11 sec at 72° C. Melting curve: 0 sec at 95° C., 30 sec at 68° C., 0 sec at 95° C. and cooling was for 2 min at 40° C.: c-myc, ILK, chromogranin A and GAPDH amplification: denaturation during 10 min at 95° C., amplification for 50 cycles: 10 sec at 70° C., 6 sec at 58° C., 13 sec at 72° C. The melting curve was 0 sec at 95° C., 30 sec at 80° C., 0 sec at 95° C. and cooling was for 2 min at 40° C. Progastrin, Muc-2, ALP and ICAT amplification: denaturation during 10 min at 95° C., amplification during 50 cycles with: 10 sec at 70° C., 6 sec at 95° C., 11 sec at 72° C. The melting curve was 0 sec at 95° C., 30 sec at 80° C., 0 sec at 70° C. and cooling was for 2 min at 40° C. Primers used for amplification of selected genes were: GAPDH-sense: 5′[…]3′ (SEQ ID No 9) antisense: 5′[…]3′ (SEQ ID No 10); Actin-sense: 5′[…]3′ (SEQ ID No 11); antisense: 5′[…]3′ (SEQ ID No 12); ILK-sense: 5′[…]3′ (SEQ ID No 13); antisense: 5′ […]3′ (SEQ ID No 14); ICAT-sense: 5′[…]3′ (SEQ ID No 15); antisense: 5′[…]3′ (SEQ ID No 16); c-myc-sense: 5′[…]3′ (SEQ ID No 17); antisense: 5′[…]3′ (SEQ ID No 18); human progastrin-sense: 5′[…]3′ (SEQ ID No 19); antisense: 5′[…]3′ (SEQ ID No 20); Muc-2-sense: 5′[…]3′ (SEQ ID No 21); antisense: 5′[…]3′ (SEQ ID No 22); Alkaline Phosphatase-sense: 5′[…]3′ (SEQ ID No 23); antisense: 5′[…]3′ (SEQ ID No 24); Chromogranin A-sense: 5′[…]3′ (SEQ ID No 25); antisense: 5′[…]3′ (SEQ ID No 26).
(§3) Immunofluorescent staining was performed as described previously (Hollande et al., 2003) Slides were then observed using a laser scanning LEICA sp2 confocal microscope with a x40 oil immersion lens.

SW480 cells [3] = test: Tumor formation of SW480 cells injected subcutaneously in BALB/c nude mice; type: in vivo, mouse; settings: SW480/GAST(−) cells stably expressing shRNA, subcutaneous injection in Balbc/nude mice, within 7 weeks, versus SW480/βgal(−)
Description: Transfection of gastrin gene antisense and control cDNA into DLD1 cell lines was described in (Hollande et al., 2003). In order to generate progastrin shRNA, the following oligonucleotides were cloned into pSilencer vector (Ambion) and transfected in SW480 cells: sense: 5′-[…] TT-3′ (SEQ ID No 1) and antisense: 5′-[…] 3′ (SEQ ID No 2). β-galactosidase oligonucleotides used to generate control shRNA were: sense: 5′ […] 3′ (SEQ ID No 3); antisense 5′[…] 3′ (SEQ ID No 4). 5×10^4 cells/well were seeded and transfected 24 h later with 500 ng of pSilencer/progastrin-shRNA or pSilencer/β-galactosidase-shRNA, 50 ng of pcDNA-3, and 5 μl/well of Exgen 500 (Euromedex). Selection was performed with Neomycin (500 ng/μl).
In vivo experiments were performed following the French guidelines for experimental animal studies (Direction des Services Vétérinaires, Ministére de l'Agriculture, Agreement N^oB34-172-27) and fulfill the UKCCCR guidelines for the welfare of animals in experimental neoplasia. 2×10^6 cells were injected subcutaneously into 6-weeks-old athymic BALB/c-nu/nu (nude) mice. Tumor growth was followed regularly thereafter (Estimated tumor volume=(Length×width×thickness)/2).

[4] = system: nuclear compartmentation of β-catenin and Tcf-4; test: Immunofluorescent staining of β-catenin and Tcf-4 in SW480 cells; type: cell-based, human; settings: SW480/GAST(−) cells, 5 nM recombinant progastrin
Protocol: as §3

[5] = system: β-catenin/Tcf-4 and β-catenin/ICAT association; test: Co-immunoprecipitation of dephosphorylated β-catenin with Tcf-4 and ICAT in SW480 cells; type: cell-based, human; settings: SW480/GAST(−) cells treated with recombinant progastrin
Protocol: as §2

Akt/PKB = test: Ser473 phosphorylation of Akt/PKB in SW480 cells (Western blotting); type: cell-based, human; settings: SW480/GAST(−) cells, 5 nM recombinant progastrin
Protocol: as §2

ILK = ILK expression and immune complex kinase assay in SW480 cells; type: cell-based, human; settings: SW480/GAST(−) cells, 5 nM recombinant progastrin
Protocol: as §2
The reaction was started by the addition of 25 μl of kinase buffer (50 mM Hepes pH 7.0, 1 mM MnCl2, 1 mM Na orthovanadate, 2 mM NaF, 5 μg Myelin Basic Protein (Sigma)) with 0.5 μg of ATP ([…], 1 μCi[γ-^32P]ATP) per tube, and incubated at 30° C. for 20 min. The reaction was terminated with the addition of 10 μl of 4× sample buffer. The tubes were centrifuged at 10,000 g for 1 min and the proteins were resolved on a 14% SDS-page gel. Phosphorylation of the substrate was visualized by autoradiography (Marotta et al., 2003).

[6] = system: Tcf-4 target genes (c-myc, cyclin D1, Sox-9 and claudin-1); test: Expression of Tcf-4 target genes in SW480/GAST(−) cells; type: cell-based, human; settings: progastrin-depleted SW480/GAST(−) cells, treatment with the recombinant peptide (5 nM, 72 h)
Protocol: as §1, §2

[7] = treatment of CRC cells with short gastrin forms or CCK-B receptor antagonist (FIG. S2)
[8] = transient transfection with siRNA
[9] = amidated and glycine-extended gastrins

With `Cc1cccc(NC(=O)N[C@@H]2N=C(c3ccccc3)c3ccccc3N(C)C2=O)c1` [L365, 260] the β-catenin/Tcf-4 activity [1, 7] was “did not affect”.

In the case of `COc1cccc(-c2cc(=O)c3ccccc3o2)c1N` [PD98059], the β-catenin/Tcf-4 activity ([1]; SW480 cells, 1 μM PD98059 (ERK1/2 pathway inhibition)) is reported as “did not affect” and the ICAT expression (ICAT; SW480 cells, 1 μM PD98059) is reported as “did not affect”.

`CC(C)(C)n1nc(-c2ccc(Cl)cc2)c2c(N)ncnc21` [PP2] was tested, and the β-catenin/Tcf-4 activity ([1]; SW480 cells, 10 μM PP2 (Src pathway inhibition)) was “did not affect” and the ICAT expression (ICAT; SW480 cells, 10 μM PP2) was “did not affect”.

For “GAST-specific siRNA oligonucleotides: rhodamine-tagged siRNA directed against the human GAST gene; siRNAs hPG sense 5′-GAAGAAGCCUAUGGAUGGATT-3′ (SEQ ID No 27), antisense SEQ ID No 28 (antisense UCCAUCCAUAGGCUUCUUCTT; rhodamine-tagged siRNA, tag position not given here)”, the caspase-3 activation (SW480 cells [2]; [8]) was “detection of caspase-3 activation”, the “expression of genes encoding chromogranin A or enterocyte-specific alkaline phosphatase” value (SW480 cells [2]; [8]) was “without detectable alterations” and the “expression of the goblet cell-specific gene Muc-2” value (SW480 cells [2]; transient transfection with siRNA, versus β-galactosidase siRNA) was “significant induction”.

For “amidated gastrin17: COOH terminally amidated gastrin, maturation product of progastrin (QGPWLEEEEEAYGWMDF-NH2; ends and bridges not checked) [reference compound]”, the β-catenin/Tcf-4 activity [1, 7] was “did not affect” and the “differentiation and apoptosis phenotypes of GAST siRNA-transfected cells” value (“differentiation and apoptosis phenotypes” for short) (SW480 cells [2]; [9]) was “had no effect”.

B1: short hairpin RNA (shRNA), directed against the GAST gene: progastrin shRNA, oligonucleotides SEQ ID No 1 and SEQ ID No 2 cloned into pSilencer vector, stably expressed in SW480 cells (nucleic acid)
DNA 1: GAAGAAGCCTATGGATGGATTCAAGAGAAGGTAGGTATCCGAAGAAGTTTTTT
DNA 2: AATTAAAAAACTTCTTCGGATACCTACCTTCTCTTGAATCCATCCATAGGCTTCTTCGGCC
For B1, the “ability to form tumors” value (SW480 cells [3]) was “greatly reduced”.

B2: recombinant progastrin: full-length progastrin (1-80) prohormone encoded by the GAST gene; recombinant peptide or secreted by CRC cells (protein)
chain: SWKPRSQQPDAPLGTGANRDLELPWLEQQGPASHHRRQLGPQGPPHLVADPSKKQGPWLEEEEEAYGWMDFGRRSAEDEN
In the case of B2, the “β-catenin/Tcf-4 transcriptional activity (TOP/FOP luciferase reporter)” value ([1]; SW480/GAST(−) clones, 5 nM recombinant progastrin, 72 h) is reported as “restore a strong level of transcription”, the “differentiation and apoptosis phenotypes” value (SW480 cells [2]; recombinant progastrin for 48 h) is reported as “reversed” and the “nuclear compartmentation of β-catenin and Tcf-4” value [4] is reported as “partially restored”. For the same molecule, the “binding partner of β-catenin (Tcf-4 versus ICAT)” value [5] was “preferentially bound to Tcf-4”, the “serine 473-phosphorylation of Akt/PKB” value (Akt/PKB) was “reinstated” and the ICAT expression (ICAT; SW480/GAST(−) cells, 5 nM recombinant progastrin) was “De novo repression”. The “decrease of expression and activity of ILK” value (ILK) was “partially reversed” and the “expression of Tcf-4 target genes (c-myc, cyclin D1, Sox-9 and claudin-1)” value [6] was “significantly stimulated”.

B3: glycine-extended gastrin17: glycine-extended gastrin, one of the products of progastrin maturation (peptide)
peptide: B2 chain
In the case of B3, the β-catenin/Tcf-4 activity [1, 7] is reported as “did not affect” and the “differentiation and apoptosis phenotypes” value (SW480 cells [2]; [9]) is reported as “had no effect”.
